# Experimental data from US12173057B2, “Antibodies and therapeutic uses thereof” (Ibex Biosciences, Inc., priority 2018, dated 2024).
# “Also recorded” adds a separate entry of the source.
# B1: murine antibody: recombinant mouse anti-filamin-A mAb of the disclosure (mouse antibody B186); mouse VL SEQ ID NO:22, VH SEQ ID NO:24 (antibody, listed as Mus sp., V domains shown)
# VH: EVKLVESGGGLVQPGGSLKLSCAASGFTFSSYTMSWVRQTPEKRLEWVAYISNGGGSTYYPDTVKGRFTISRDNAKNTLYLQMSSLKSEDTAMYYCASDGLLRPFAYWGQGTLVTVSA
# VL: DIVMTQSHKFMSTSVGDRVSITCKASQDVSIDVAWYQQKPGQSPKLLIYSASHRYTGVPDRFTGSGSGTDFTFTISGVQAEDLAVYFCQQHYSTPLTFGAGTKLELK
# B2: B411: anti-filamin-A human chimeric antibody, light chain variable region SEQ ID NO:2, heavy chain variable region SEQ ID NO:7 (antibody, V domains shown)
# VH: EVKLVESGGGLVQPGGSLKLSCAASGFTFSSYTMSWVRQTPEKRLEWVAYISNGGGSTYYPDTVKGRFTISRDNAKNTLYLQMSSLKSEDTAMYYCASDGIIRPFAYWGQGTLVTVSA
# VL: DIVMTQSHKFMSTSVGDRVSITCKASQDVSLDVAWYQQKPGQSPKLLIYSASHRYTGVPDRFTGSGSGTDFTFTISGVQAEDLAVYFCQQHYSTPLTFGAGTKLELK
# modifications: VH domain of mAbs B407 and B411; human chimeric mAb VL domain of mAbs B408, B409, B410, and B411
# How the values were obtained:
# MDA-MB-231 cells = experiment: ORIS cell migration (motility) assay; format: cell-based, human
# Method: Cell motility assays utilized the Platypus Technologies ORIS™ cell migration assay platform, which is generally described at platypustech.com/discoverAssay.html.
# Specifically, the filamin-A antibodies of the present disclosure were evaluated in the ORIS™ cell migration assay, which used tri-coated 96 well plates (Platypus #CMATR1.101). Cells were seeded at approximately 50,000 cells/well. Cells were incubated overnight at 37° C. without CO2 in DMEM, in the case of HEK-293 cells, or L-15 containing 10% FBS, in the case of MDA-MB-231 cells. Stoppers covering cell growth chambers were removed with the ORIS™ stopper tool, growth media was removed, and wells were gently washed with 100 microliters of sterile PBS. Stoppers were left in place in reference wells until the staining step to serve as pre-migration controls. After washing, a 100 microliter volume of fresh culture media containing the specific treatment was added to each well. The cells were then allowed to incubate overnight. At the end of the incubation period, cells were fluorescently stained with Calcein AM for 30 minutes. Fluorescence was then measured using a microplate reader with a Detection Mask in place.
# FIGS. 1 and 2 depict the relative fluorescence units (RFUs) present in the detection zones for each condition (mean+/−S.D., n=2 wells/condition).
# Wells containing the cells existed in three formats: coated with collagen, coated with fibronectin, or a tissue culture (TC) treatment.
# Well treatments were as follows: no antibody control, mouse antibody (mAb FLNA 1 mcg/ml), mouse antibody (mAb FLNA 20 mcg/ml), human chimeric antibody (hAb FLNA 1 mcg/ml), human chimeric antibody (hAb FLNA 20 mcg/ml), apicdin (100 nM), cytochalasin B (30 micromolar); see FIG. 1. An increase in the number of RFUs correlates with an increase in cellular motility.
# filamin-A = experiment: Immunofluorescence assays with MDA-MB-231 breast cancer cell line; format: cell-based, human
# Method: Characterization of the filamin-A mAbs was performed using immunofluorescence assays with the MDA-MB-231 breast cancer cell line. […] For comparison, the AHO1402 mAb and another commercially available mAb, TI10 (Millipore MAB1680-C), were assayed at the same time.
# The primary antibodies utilized in the immunofluorescence assays were as follows: • Anti-Filamin-A, clone TI10 (Millipore, p/n MAB1680-C) • Anti-Filamin-A, clone 209 #13 (Life Technologies, p/n AHO1402) • Anti-Filamin-A, mouse mAb • Anti-Filamin-A, human chimeric mAb • Anti-beta Actin, rabbit polyclonal (Rockland, p/n 600-401-886S)
# Two primary methods of Immunofluorescence staining were utilized. The first method comprises single staining or double staining with methanol as a fixative and 0.2% Triton as a permeabilization agent, which is described in Alper et al. 2009. The second method utilizes a double staining technique with 2% paraformaldehyde as a fixative and 0.2% triton as a permeabilization agent.
# Primary antibodies were incubated with the fixed and permeabilized cells for 1 hour at room temperature at a concentration of 1.25 mcg/ml. After one or more wash steps, secondary antibodies were incubated with the cells for 1 hour at room temperature. […]
# [1] = tested on: MDA-MB-231 breast cancer cells; experiment: ORIS cell migration assay with Calcein AM / propidium iodide / Hoechst 33342 staining; format: cell-based, human; conditions: overnight incubation with antibody versus buffer control
# Method: Additional cell assays were carried out using the B411 antibody and the breast cancer cell lines MDA-MB-231 and SKBR3. Specifically, the filamin-A antibody B411 was evaluated in the ORIS™ cell migration assay, which used tri-coated 96 well plates (Platypus #CMATR1.101). Cells were seeded at approximately 25,000 or 50,000 cells/well. Cells were incubated overnight at 37° C., CO2, McCoy's in the case of SKBR3 cells, or L-15 containing 10% FBS, without CO2 in the case of MDA-MB-231 cells. Stoppers covering cell growth and migration zones were removed with the ORIS™ stopper tool, growth media was removed, and wells gently washed with 100 microliters of sterile PBS. Stoppers were left in place in reference wells until the staining step to serve as no-migration controls. After washing, a 100 microliter volume of fresh culture media containing the specific treatment was added to each well. The cells were then allowed to incubate overnight. At the end of the incubation period, cells were fluorescently stained as follows: • Carefully remove remaining culture medium from wells and wash with 100 μL of PBS. […] Fluorescence was then measured using a microplate reader with a Detection Mask in place. • Carefully remove Calcein AM and wash with 100 μL of PBS. […] Incubate 5-10 min at room temperature. • Take a fluorescence image (blue, green and red channels) of a representative well(s) using 5× magnification.
# [2] = tested on: DU145 (human prostate cancer cell line); experiment: CellCountzEZ Cell Survival Assay; format: cell-based; conditions: for ratio of inhibition: dose not restated in b354 (10 μg)
# Method: (§1) A study was conducted to assess cell survival following incubation with antibody B411. DU145 (human prostate cancer cell line) and HEK293A (human embryonic kidney cell line) cells were seeded on 96-well plates (10^4 cells/well) and incubated for 4 hours at 37° C. 1 μg or 10 μg B411 (endotoxin removed, 1.2 EU/mL) was added to the wells and incubated for 24 or 48 hours. An untreated group for both cell types was also included. Cell survival was detected using CellCountzEZ™ Cell Survival Assay kit and results were determined by reading OD412 with a reference to OD650.
# [3] = tested on: HEK293A (human embryonic kidney cell line); experiment: CellCountzEZ Cell Survival Assay; format: cell-based; conditions: for ratio of inhibition: dose not restated in b354 (10 μg)
# Method: as §1
# [4] = target: T1, surface filamin A on HeLa cells (Homo sapiens, UniProt P21333); experiment: B411 surface staining by flow cytometry; format: binding; conditions: 2 μg primary antibody, 1 hour on ice
# T1 construct: endogenous in cells; host or cells: HeLa
# Method: (§2) B411 surface staining on several different cell types was conducted. Cells were plated at a concentration of 0.5-1.0 million cells per well, and incubated overnight. Cells were then lifted from the wells, washed, and resuspended in flow cytometry media with 2 μg of primary antibody for 1 hour on ice. Cells were washed and incubated with the secondary antibody (5 μg/ml) for 30 minutes on ice. Cells were washed again and analyzed by flow cytometry.
# [5] = target: T2, surface filamin A on SKBR3 (breast adenocarcinoma) cell line (Homo sapiens, UniProt P21333); experiment: B411 surface staining by flow cytometry; format: binding; conditions: 2 μg primary antibody, 1 hour on ice
# T2 construct: endogenous in cells; host or cells: SKBR3
# Method: as §2
# [6] = target: T3, surface filamin A on SKNAS (human neuroblastoma) cell line (Homo sapiens, UniProt P21333); experiment: B411 surface staining by flow cytometry; format: binding; conditions: 2 μg primary antibody, 1 hour on ice
# T3 construct: endogenous in cells; host or cells: SKNAS
# Method: as §2
# [7] = target: T4, surface filamin A on SKOV3 cell line (ovarian cancer) (Homo sapiens, UniProt P21333); experiment: B411 surface staining by flow cytometry; format: binding; conditions: 2 μg primary antibody, 1 hour on ice
# T4 construct: endogenous in cells; host or cells: SKOV3
# Method: as §2
# [8] = tested on: SKBR3 cells (breast adenocarcinoma); experiment: Endocytosis assay (Zenon pHrodo labelled antibody, flow cytometry); format: cell-based, human; conditions: 12 μg/mL labelled antibody; 24 hours, 37° C.
# Method: Experiments were conducted to determine if antibody B411 is endocytosed by cells. 250,000 cells/well were plated and incubated overnight at 37° C., 5% CO2. 12 μg/mL of antibodies were labelled with Zenon pHrodo kit (human green) according to the manufacturer's protocol for 5 minutes at room temperature, in the dark. The plated cells were then incubated with the labeled antibodies for 24 hours, at 37° C., 5% CO2. Cells were then lifted by manual scraping, and washed prior to analysis by flow cytometry.
# T4 sequence (P21333 whole entry): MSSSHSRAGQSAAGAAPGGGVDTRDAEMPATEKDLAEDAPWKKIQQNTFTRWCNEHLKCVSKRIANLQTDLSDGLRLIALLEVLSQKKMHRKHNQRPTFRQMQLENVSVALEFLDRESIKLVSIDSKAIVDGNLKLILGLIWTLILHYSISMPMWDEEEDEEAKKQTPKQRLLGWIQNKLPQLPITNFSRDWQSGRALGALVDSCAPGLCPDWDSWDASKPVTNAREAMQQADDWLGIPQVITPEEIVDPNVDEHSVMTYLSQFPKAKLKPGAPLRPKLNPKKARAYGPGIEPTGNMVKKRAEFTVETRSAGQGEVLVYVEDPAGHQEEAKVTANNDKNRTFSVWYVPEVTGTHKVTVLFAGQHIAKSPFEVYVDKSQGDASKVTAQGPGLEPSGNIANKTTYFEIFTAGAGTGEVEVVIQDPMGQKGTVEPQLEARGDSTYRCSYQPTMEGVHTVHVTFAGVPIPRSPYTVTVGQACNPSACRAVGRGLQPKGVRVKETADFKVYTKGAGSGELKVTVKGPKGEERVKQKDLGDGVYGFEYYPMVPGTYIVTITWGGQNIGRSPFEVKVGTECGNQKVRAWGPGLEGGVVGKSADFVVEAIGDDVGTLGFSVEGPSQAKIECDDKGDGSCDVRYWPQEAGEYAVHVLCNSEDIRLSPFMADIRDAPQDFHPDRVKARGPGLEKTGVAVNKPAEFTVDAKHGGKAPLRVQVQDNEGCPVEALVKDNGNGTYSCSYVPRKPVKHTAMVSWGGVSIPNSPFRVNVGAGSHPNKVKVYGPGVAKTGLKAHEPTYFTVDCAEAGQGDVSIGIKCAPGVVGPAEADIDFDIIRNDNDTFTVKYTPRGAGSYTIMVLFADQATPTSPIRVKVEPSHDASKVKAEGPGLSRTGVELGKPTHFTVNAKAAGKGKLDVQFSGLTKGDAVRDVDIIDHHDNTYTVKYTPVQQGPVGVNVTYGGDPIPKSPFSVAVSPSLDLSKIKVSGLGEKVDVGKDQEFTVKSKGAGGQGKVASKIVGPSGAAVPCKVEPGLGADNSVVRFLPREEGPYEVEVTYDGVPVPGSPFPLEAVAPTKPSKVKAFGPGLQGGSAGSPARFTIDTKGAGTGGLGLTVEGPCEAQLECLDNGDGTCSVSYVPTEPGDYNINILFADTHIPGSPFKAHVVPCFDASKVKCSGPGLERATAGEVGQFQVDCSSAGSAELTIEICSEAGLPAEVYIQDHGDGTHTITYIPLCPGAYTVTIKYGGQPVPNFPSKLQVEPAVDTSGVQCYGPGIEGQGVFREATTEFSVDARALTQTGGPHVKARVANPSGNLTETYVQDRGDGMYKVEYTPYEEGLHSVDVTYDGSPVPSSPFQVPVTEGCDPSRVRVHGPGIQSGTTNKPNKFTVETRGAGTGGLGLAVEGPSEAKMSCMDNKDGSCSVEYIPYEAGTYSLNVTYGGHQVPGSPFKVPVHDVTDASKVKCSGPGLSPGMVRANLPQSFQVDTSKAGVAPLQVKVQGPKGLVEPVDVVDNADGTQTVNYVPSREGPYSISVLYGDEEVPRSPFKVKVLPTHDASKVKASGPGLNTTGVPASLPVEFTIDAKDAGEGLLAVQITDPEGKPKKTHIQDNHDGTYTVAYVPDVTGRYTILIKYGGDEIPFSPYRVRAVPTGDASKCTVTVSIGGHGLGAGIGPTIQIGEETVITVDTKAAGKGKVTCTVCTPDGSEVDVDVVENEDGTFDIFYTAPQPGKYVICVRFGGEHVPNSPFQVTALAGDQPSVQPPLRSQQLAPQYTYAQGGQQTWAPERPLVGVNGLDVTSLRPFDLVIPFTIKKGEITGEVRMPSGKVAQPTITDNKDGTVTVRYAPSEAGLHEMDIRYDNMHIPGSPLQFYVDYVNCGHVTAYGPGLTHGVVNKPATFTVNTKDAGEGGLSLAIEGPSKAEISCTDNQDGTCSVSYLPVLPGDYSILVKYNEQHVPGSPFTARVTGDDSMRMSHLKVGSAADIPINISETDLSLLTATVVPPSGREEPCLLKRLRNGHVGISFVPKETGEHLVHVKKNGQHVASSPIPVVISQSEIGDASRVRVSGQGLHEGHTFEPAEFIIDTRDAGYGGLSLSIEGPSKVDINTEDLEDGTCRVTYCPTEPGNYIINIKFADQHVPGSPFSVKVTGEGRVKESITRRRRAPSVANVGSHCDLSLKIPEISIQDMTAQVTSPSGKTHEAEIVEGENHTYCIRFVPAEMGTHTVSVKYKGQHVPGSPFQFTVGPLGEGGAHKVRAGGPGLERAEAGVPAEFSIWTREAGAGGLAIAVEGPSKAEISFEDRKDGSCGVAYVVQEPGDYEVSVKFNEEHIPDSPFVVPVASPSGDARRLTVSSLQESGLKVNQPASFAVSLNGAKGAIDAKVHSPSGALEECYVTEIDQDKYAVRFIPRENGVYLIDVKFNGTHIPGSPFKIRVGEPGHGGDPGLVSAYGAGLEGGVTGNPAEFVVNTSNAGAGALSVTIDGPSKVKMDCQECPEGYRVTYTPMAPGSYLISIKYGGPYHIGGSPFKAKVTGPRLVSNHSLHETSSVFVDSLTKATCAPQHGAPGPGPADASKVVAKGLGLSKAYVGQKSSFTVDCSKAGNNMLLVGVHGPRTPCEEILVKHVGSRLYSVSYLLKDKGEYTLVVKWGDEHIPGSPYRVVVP
# T3 sequence (P21333 whole entry): as above
# T1 sequence (P21333 whole entry): as above
# T2 sequence (P21333 whole entry): as above
molecule,measurement,setting,value
"C=C1[C@@H](C)[C@H]2[C@H](Cc3ccccc3)NC(=O)[C@]23OC(=O)/C=C/[C@H](O)CCC[C@@H](C)C/C=C/[C@H]3[C@@H]1O [cytochalasin B, reference compound]",effect on cell migration,"MDA-MB-231 cells; tissue culture (TC) treatment wells, no coating",little effect across treatments with the exception of cytochalasin B
B1,effect on cell motility,MDA-MB-231 cells; collagen coated wells,no considerable differences
same,effect on cell migration,"MDA-MB-231 cells; collagen treated wells, 1 μg/mL",did not lead to a reduction in cell migration
same,effect on cell motility / cell migration,"MDA-MB-231 cells; fibronectin coated wells, 1 μg/mL",decreases in cell motility
same,effect on cell motility / cell migration,"MDA-MB-231 cells; fibronectin coated wells, 1 μg/mL, listed as murine mAbs",less of a reduction
same,cell motility (relative fluorescence units in detection zone),"MDA-MB-231 cells; fibronectin coated wells, antibody 1 μg/mL, overnight incubation",191.34 RFU
same,immunofluorescence staining pattern,"filamin-A; MDA-MB-231 cells, primary antibody 1.25 mcg/ml",punctate staining pattern
same,immunofluorescence staining pattern,"filamin-A; first method: methanol fixative, 0.2% Triton permeabilization",reproduced the punctuate staining pattern
B2,Calcein AM staining (metabolic activity),[1],more variability in Calcein AM staining
same,Hoechst 33342 staining (apoptosis-like phenotype),[1],increase in Hoechst 33342 staining
same,inhibition effect on proliferation versus untreated group,"[2]; 1 μg dosing, 24 h",significant inhibition effect on proliferation
same,inhibition effect on proliferation versus untreated group,"[2]; 1 μg dosing, 48 h",no statistically significant effect
same,cell proliferation (OD412 with reference to OD650),"[2]; 1 μg or 10 μg, 24 or 48 hours, overall statement",inhibits DU145 (cancer) cell proliferation
same,inhibition effect on proliferation versus untreated group,"[2]; 10 μg dosing, 24 h and 48 h",significant inhibition effects on proliferation
same,ratio of inhibition,[2]; 24 h,7.8%
same,ratio of inhibition,[2]; 48 h,14.6%
same,effect on cell proliferation,"[3]; 1 μg dose, 24 h or 48 h",did not have an effect
same,inhibition of cell proliferation,[3]; 10 μg,Inhibition of HEK293 cell proliferation was also observed
same,ratio of inhibition,[3]; 24 h,9.3%
same,ratio of inhibition,[3]; 48 h,17.7%
same,surface staining,[4],Highly Positive staining
same,surface staining,[5],some positive staining; also recorded: weaker compared to the other cell lines tested
same,surface staining,[6],Highly Positive staining
same,surface staining,[7],Highly Positive staining
same,endocytosis of antibody,[8],detected
same,"number of cells positive for endocytosis, SKBR3 compared to HEK (non-cancer) cells",[8],More SKBR3 cells were positive for B411 than HEK cells
